{"source": "paper PMC6220203", "about": "(2018)", "binders": {"B1": {"name": "MET receptor extracellular domain SEMA–IPT4 (residues 1–931)-Fc (Fc fusion)", "chain": "ECKEALAKSEMNVNMKYQLPNFTAETPIQNVILHEHHIFLGATNYIYVLNEEDLQKVAEYKTGPVLEHPDCFPCQDCSSKANLSGGVWKDNINMALVVDTYYDDQLISCGSVNRGTCQRHVFPHNHTADIQSEVHCIFSPQIEEPSQCPDCVVSALGAKVLSSVKDRFINFFVGNTINSSYFPDHPLHSISVRRLKETKDGFMFLTDQSYIDVLPEFRDSYPIKYVHAFESNNFIYFLTVQRETLDAQTFHTRIIRFCSINSGLHSYMEMPLECILTEKRKKRSTKKEVFNILQAAYVSKPGAQLARQIGASLNDDILFGVFAQSKPDSAEPMDRSAMCAFPIKYVNDFFNKIVNKNNVRCLQHFYGPNHEHCFNRTLLRNSSGCEARRDEYRTEFTTALQRVDLFMGQFSEVLLTSISTFIKGDLTIANLGTSEGRFMQVVVSRSGPSTPHVNFLLDSHPVSPEVIVEHTLNQNGYTLVITGKKITKIPLNGLGCRHFQSCSQCLSAPPFVQCGWCHDKCVRSEECLSGTWTQQICLPAIYKVFPNSAPLEGGTRLTICGWDFGFRRNNKFDLKKTRVLLGNESCTLTLSESTMNTLKCTVGPAMNKHFNMSIIISNGHGTTQYSTFSYVDPVITSISPKYGPMAGGTLLTLTGNYLNSGNSRHISIGGKTCTLKSVSNSILECYTPAQTISTEFAVKLKIDLANRETSIFSYREDPIVYEIHPTKSFISGGSTITGVGKNLNSVSVPRMVINVHEAGRNFTVACQHRSNSEIICCTTPSLQQLNLQLPLKTKAFFMLDGILSKYFDLIYVHNPVFKPFEKPVMISMGNENVLEIKGNDIDPEAVKGEVLKVGNKSCENIHLHSEAVLCTVPNDLLKLNSELNIEWKQAISSTVLGKVIVQPDQNF"}}, "target": "Biotinylated aMD5 (C-terminal biotinylated macrocycle) (macrocyclized; biotin (NHS-biotin) on the added C-terminal Lys)", "assay": "SPR", "data": [{"binder": "B1", "values": [{"measurement": "koff", "value": 0.00041, "unit": "s⁻¹"}]}]}
